According to patent US20250215108A1:
Where “and” joins values, the source holds several entries; their conditions need not be identical. Equal entries are not always repeated.

How the values were obtained:
[1] = target: SIRPγ on peripheral human CD3+ T cells (human) (UniProt Q9P1W8); assay: flow cytometry on peripheral human CD3+ T cells, 10 µg/ml; Exp 1 HV2
[2] = target: SIRPγ on peripheral human CD3+ T cells (human) (UniProt Q9P1W8); assay: flow cytometry on peripheral human CD3+ T cells, 10 µg/ml; Exp 1 HV1
[3] = target: recombinant hSIRPa-His (Sino Biologicals, reference 11612-H08H) (human) (UniProt P78324); assay: SPR (Biacore 3000); SIRPa-His immobilised on a CM5 chip (500 RU), antibody injected; 3 min association, 10 min dissociation
[4] = target: recombinant hSIRPa (Sino Biologicals, reference 10975-H08H) (human) (UniProt P78324); assay: ELISA (ED50), immobilized hSIRPa, anti-mouse Fc detection
recombinant hSIRPa (Sino Biologicals, reference 10975-H08H) (human), sequence (P78324 other isoform, or with tags, fused parts or gaps H08H H08H limits assumed): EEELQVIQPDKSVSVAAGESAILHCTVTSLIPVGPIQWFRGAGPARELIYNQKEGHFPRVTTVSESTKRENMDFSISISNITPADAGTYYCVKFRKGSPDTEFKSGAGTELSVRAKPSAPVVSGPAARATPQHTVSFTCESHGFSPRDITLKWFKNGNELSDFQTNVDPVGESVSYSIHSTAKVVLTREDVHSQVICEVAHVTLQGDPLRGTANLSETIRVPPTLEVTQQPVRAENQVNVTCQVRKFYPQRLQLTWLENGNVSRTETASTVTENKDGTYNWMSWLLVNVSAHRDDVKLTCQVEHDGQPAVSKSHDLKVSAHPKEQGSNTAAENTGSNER

SIRPγ on peripheral human CD3+ T cells (human), sequence (Q9P1W8 29-387): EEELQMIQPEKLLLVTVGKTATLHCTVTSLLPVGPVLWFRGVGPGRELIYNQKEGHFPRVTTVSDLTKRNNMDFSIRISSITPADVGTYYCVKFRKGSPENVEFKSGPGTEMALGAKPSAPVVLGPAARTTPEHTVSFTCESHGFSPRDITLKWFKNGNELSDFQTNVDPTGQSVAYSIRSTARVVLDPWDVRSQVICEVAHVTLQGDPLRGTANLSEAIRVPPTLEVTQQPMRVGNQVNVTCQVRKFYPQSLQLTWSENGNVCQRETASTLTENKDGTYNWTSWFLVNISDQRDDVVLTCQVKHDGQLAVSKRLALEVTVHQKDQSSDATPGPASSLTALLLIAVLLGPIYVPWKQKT
recombinant hSIRPa-His (Sino Biologicals, reference 11612-H08H) (human), sequence (P78324 31-370, form in doubt): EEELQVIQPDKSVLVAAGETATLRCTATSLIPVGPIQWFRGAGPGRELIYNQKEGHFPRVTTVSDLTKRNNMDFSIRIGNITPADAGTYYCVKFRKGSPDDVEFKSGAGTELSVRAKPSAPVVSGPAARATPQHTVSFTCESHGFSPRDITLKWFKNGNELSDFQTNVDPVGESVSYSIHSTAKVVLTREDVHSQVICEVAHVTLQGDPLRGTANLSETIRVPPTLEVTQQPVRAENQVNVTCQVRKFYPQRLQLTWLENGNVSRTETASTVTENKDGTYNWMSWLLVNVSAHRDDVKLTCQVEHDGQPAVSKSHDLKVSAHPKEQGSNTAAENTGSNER

% of positive T-cells [1] [%]	% of positive T-cells [2] [%]	Kd [3] [µM]	koff [3] [s⁻¹]	kon [3] [M⁻¹ s⁻¹]	EC50 [4]	Substance
98.4	91.4					LSB2.20 (specific anti-SIRPγ antibody)
7.69	3.72	0.0387	0.000949	24500	0.16 nM and 0.024 µg/mL	SE5A5 (BioLegend BLE323802), antibody recognizing SIRP a/B
		1.67	0.01	5980		anti-SIRPa antibody SE7C2 (Santa Cruz sc-23863)
0.25	0.87					anti-SIRPb antibody B4B6
